In data set [1] the target is F-actin (rabbit skeletal muscle actin, polymerized) (rabbit, UniProt P68135 1-377). As to the kind of experiment: co-sedimentation; F-actin co-sedimentation, conditions B2 (PIPES pH 6.8, 100 mM NaCl); fixed 6 μM myotilin fragment in 20 μl mixed with pre-polymerized F-actin (0 to 60 μM) in 20 μl; one site-specific binding fit; apparent Kd. The note with it: both partners purified.

Data set [2] deals with the molecule itself. As to the kind of experiment: SAXS; batch SAXS at high or comparable concentrations; Ig1Ig2^250–444 up to 14.12 mg/ml, Ig1Ig2^250–498 up to 42.8 mg/ml, Ig1Ig2^220–452 up to 52 or 36.6 mg/ml, R405K up to 45.5 mg/ml; 20 mM HEPES, 150 mM NaCl, 5% glycerol, 1 mM DTT, pH 7.4 (one 220–452 set in 20 mM MES, 200 mM NaCl, pH 6.0); mass from I0, Rg, Dmax, P(r); monomer to dimer.

Data set [3] addresses T1, Full-length myotilin with N-terminal thioredoxin tag (Trx-MYOT) (human, UniProt Q9UBF9 1-498).
T1 construct: myotilin, human, full length; source: E. coli B834 (DE3), purified (HisTrap FF, SEC); not shown: Trx, N-terminal, kept
T1 sequence (looked up): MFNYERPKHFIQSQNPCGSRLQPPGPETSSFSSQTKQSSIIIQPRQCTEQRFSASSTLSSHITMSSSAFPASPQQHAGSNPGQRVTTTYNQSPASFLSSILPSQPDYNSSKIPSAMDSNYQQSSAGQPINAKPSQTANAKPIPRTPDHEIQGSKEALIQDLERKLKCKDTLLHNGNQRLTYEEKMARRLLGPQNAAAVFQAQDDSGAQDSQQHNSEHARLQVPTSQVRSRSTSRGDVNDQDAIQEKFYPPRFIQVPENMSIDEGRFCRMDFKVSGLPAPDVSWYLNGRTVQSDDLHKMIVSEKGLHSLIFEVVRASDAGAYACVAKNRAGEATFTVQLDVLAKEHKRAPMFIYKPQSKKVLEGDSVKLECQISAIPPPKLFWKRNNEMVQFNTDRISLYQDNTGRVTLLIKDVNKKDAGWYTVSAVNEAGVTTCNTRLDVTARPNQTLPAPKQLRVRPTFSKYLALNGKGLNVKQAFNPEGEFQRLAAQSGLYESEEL
As to the kind of experiment: ITC; 25°C; 400 μM ACTN2-EF14 injected into the cell with 20 μM Trx-MYOT or Trx-MYOT-NEECK; 20 mM Hepes, 400 mM NaCl, 250 mM arginine, 5% glycerol, pH 7.5. The note with it: both partners purified. A general note: Isothermal titration calorimetry measures the heat released or taken up as one component is titrated into another.

We go through five molecules from article PMC8062120, “Molecular basis of F-actin regulation and sarcomere assembly via myotilin” (PLoS Biology, 2021).

B1: Myotilin Ig1Ig2^185–498 (domain or fragment)
chain: MARRLLGPQNAAAVFQAQDDSGAQDSQQHNSEHARLQVPTSQVRSRSTSRGDVNDQDAIQEKFYPPRFIQVPENMSIDEGRFCRMDFKVSGLPAPDVSWYLNGRTVQSDDLHKMIVSEKGLHSLIFEVVRASDAGAYACVAKNRAGEATFTVQLDVLAKEHKRAPMFIYKPQSKKVLEGDSVKLECQISAIPPPKLFWKRNNEMVQFNTDRISLYQDNTGRVTLLIKDVNKKDAGWYTVSAVNEAGVTTCNTRLDVTARPNQTLPAPKQLRVRPTFSKYLALNGKGLNVKQAFNPEGEFQRLAAQSGLYESEEL
notes: source: E. coli C41 (DE3), purified (HisTrap FF, HRV-3C cleavage, StrepTrap HP, SEC)
B1: the Kd in data set [1] worked out at 2000 ± 400 nM.

B2: Myotilin Ig1Ig2^220–452 (domain or fragment, human, UniProt Q9UBF9 220-452, looked up)
chain: LQVPTSQVRSRSTSRGDVNDQDAIQEKFYPPRFIQVPENMSIDEGRFCRMDFKVSGLPAPDVSWYLNGRTVQSDDLHKMIVSEKGLHSLIFEVVRASDAGAYACVAKNRAGEATFTVQLDVLAKEHKRAPMFIYKPQSKKVLEGDSVKLECQISAIPPPKLFWKRNNEMVQFNTDRISLYQDNTGRVTLLIKDVNKKDAGWYTVSAVNEAGVTTCNTRLDVTARPNQTLPAPK
notes: Dimer only at high concentration; monomeric at low concentrations; source: E. coli, purified (HisTrap, HRV-3C cleavage, SEC); not shown: His tag (from the HisTrap column)
What is called stoichiometry N is a count of units in the complex or per binding partner. Turning to B2, the “stoichiometry N” value in data set [2] came out at 2.

B3: Myotilin Ig1Ig2^185–454 (domain or fragment)
chain: MARRLLGPQNAAAVFQAQDDSGAQDSQQHNSEHARLQVPTSQVRSRSTSRGDVNDQDAIQEKFYPPRFIQVPENMSIDEGRFCRMDFKVSGLPAPDVSWYLNGRTVQSDDLHKMIVSEKGLHSLIFEVVRASDAGAYACVAKNRAGEATFTVQLDVLAKEHKRAPMFIYKPQSKKVLEGDSVKLECQISAIPPPKLFWKRNNEMVQFNTDRISLYQDNTGRVTLLIKDVNKKDAGWYTVSAVNEAGVTTCNTRLDVTARPNQTLPAPKQL
notes: limits determined by intact protein mass spectrometry of the final product; source: E. coli, purified (GSTrap FF, TEV cleavage, IMAC and GSTrap flow-through, SEC)
As to B3, the Kd in data set [1] came to 3000 ± 600 nM.

B4: Myotilin Ig1Ig2^250–498 (domain or fragment)
chain: PRFIQVPENMSIDEGRFCRMDFKVSGLPAPDVSWYLNGRTVQSDDLHKMIVSEKGLHSLIFEVVRASDAGAYACVAKNRAGEATFTVQLDVLAKEHKRAPMFIYKPQSKKVLEGDSVKLECQISAIPPPKLFWKRNNEMVQFNTDRISLYQDNTGRVTLLIKDVNKKDAGWYTVSAVNEAGVTTCNTRLDVTARPNQTLPAPKQLRVRPTFSKYLALNGKGLNVKQAFNPEGEFQRLAAQSGLYESEEL
notes: source: E. coli B834 (DE3), purified (HisTrap, HRV-3C cleavage, Resource S cation exchange, SEC); not shown: His tag (from the HisTrap column)
Consider B4, for which the Kd in data set [1] stood at 1200 ± 200 nM.

B5: α-actinin-2 EF14 (ACTN2-EF14), CAMD encoding all 4 EF-hands (domain or fragment)
chain: DAKGITQEQMNEFRASFNHFDRRKNGLMDHEDFRACLISMGYDLGEAEFARIMTLVDPNGQGTVTFQSFIDFMTRETADTDTAEQVIASFRILASDKPYILAEELRRELPPDQAQYCIKRMPAYSGPGSVPGALDYAAFSSALYGESDL
modifications: His6-tag removed with HRV-3C protease; limits not printed (S3 Table), so taken by convention from just before EF-hand 1 (753) to the C-terminus
In data set [3], B5 yielded a Kd of 4200 ± 1200 nM.
